This note sets out measurements from the RNAGym collection of RNA variant scans (doi:10.1073/pnas.2313332121).

B1: TPR t1 (parent)
chain: GACCAAUCUGCCCUCAGAGCUCGAGAACAUCUUCGGAUGCAGAGGAGGCAGGCUUCGGUGGCGCGAUAGCGCCAACGUCCUCAACCUCCAAUGCAUCCCACCACAUGAUGAUGCCUGAAGAGCCUUGGUUUUUUG

In the data set the parent is B1. As to the kind of experiment: polymerase ribozyme fitness, log enrichment relative to wild type (log ratio); higher = more active; in vitro selection for triplet polymerase activity. A digest of the protocol:
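Mutant libraries for each subunit of a heterodimeric triplet polymerase ribozyme were made by PCR and then transcribed. Each library underwent one round of in vitro selection in triplicate: annealing with a biotinylated primer, the partner subunit and triplets, frozen incubation at −7 °C, gel excision of extended constructs, streptavidin-bead capture and RT-PCR. Input and output libraries were Illumina-sequenced, and only genotypes with ≥10 input reads and ≥1 read per output were kept. Fitness is the logarithm, base 2, of genotype enrichment over wild-type enrichment, computed from inverse-variance-weighted replicate averages.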
With A75U C85A U92C G113C, the “polymerase ribozyme fitness (log ratio)” value was -3.69. As for A6C C12A, the “polymerase ribozyme fitness (log ratio)” value is -1.61. The same measure for C8G G35U C123A: -3.92; for C4G G61C: -2.88; for G45C U125A: -1.86. Consider C72A C82A U96G A100U C115A, for which the “polymerase ribozyme fitness (log ratio)” value is -3.23.

In the case of A50U U55C U92G A118G, the “polymerase ribozyme fitness (log ratio)” value is -5.06. To A91G U129A belongs -2.34. For C34U C70G, the “polymerase ribozyme fitness (log ratio)” value was -5.34.

U9A C13U G19U U78A A91G: the “polymerase ribozyme fitness (log ratio)” value was -3.32. G63A A84U C115A U125G: the “polymerase ribozyme fitness (log ratio)” value was -0.899. To G47C G77U U116G belongs -3.46; to G52A C72U U125A G128C, -3.74; to C115G U125A, -1.66. Regarding G60A G69A U87A, the “polymerase ribozyme fitness (log ratio)” value is -3.78. U9A G47U G63C U130C: the “polymerase ribozyme fitness (log ratio)” value turned out to be 0.0031. To C62G C99U A121G belongs -4.31; to C11G G127C, -0.995. For the variant G17U C124A, the “polymerase ribozyme fitness (log ratio)” value was -1.01.

For the variant C8U C64U C101G G110A, the “polymerase ribozyme fitness (log ratio)” value was -3.18. With C4U G35U C62U C98A C123G, the “polymerase ribozyme fitness (log ratio)” value is -2.75.

In the case of U7A G39A G52A, the “polymerase ribozyme fitness (log ratio)” value was 0.0728. The same measure for U78C U92A: -3.1; for C12A G58A G61C C79U C82A A83C C114U: -5.31; for C11G C49A G61A G120U: 2.28. To G39A A118G A121U belongs 1.46. The same measure for C86U A119U: -0.189; for C8G A46G: 0.594.

Consider C11U C22G A26C, for which the “polymerase ribozyme fitness (log ratio)” value was -3.57.

C40A U131A: the “polymerase ribozyme fitness (log ratio)” value is -1.11.

On to G35A G36U U112A, for which the “polymerase ribozyme fitness (log ratio)” value is -5.59. To C49U G63A U67C C85U G93U G110C C124A belongs -8.14; to A6U G60C, 0.0676. To A50U C53U A83G A84C C89G C115U belongs -5.92. To G69C A83U U129A belongs -1.71; to A27U U54C G71U C98A U132C, -6.73.

For the variant C82G U132A, the “polymerase ribozyme fitness (log ratio)” value is -0.6. For the variant A27C G42C G71A G120C U126A U130G, the “polymerase ribozyme fitness (log ratio)” value was -6.83.

With G77A U112A, the “polymerase ribozyme fitness (log ratio)” value was determined as 0.751. To C13U G52C U59C C104U G120U G127A belongs -1.32; to C13G G42U C49U G61U, -3.55. In the case of A5U C11A C102A, the “polymerase ribozyme fitness (log ratio)” value was -4.33. The same measure for G10U G77A G93U U129C: -2.07; for U21C: -0.0619; for C49A A74C C94U U116A: -3.09. To G45C U96A G113C belongs -3.21; to C11U A26U A46C C49G C72U C86G, -6.59; to C40U C115A G128A, -2.68. To C12G G60A C115G belongs -4.95; to C4U U7C A43U C62G, -4.93; to A27G A50C A111U, -3.29. For C40U A83G U112G, the “polymerase ribozyme fitness (log ratio)” value is -1.69.

Turning to C15U C70G U78A C86G G127A, the “polymerase ribozyme fitness (log ratio)” value is -5.32. To C49U G60C belongs -0.958; to C4G U112A, -0.309. In the case of U14G C40A G71U A121G G127U, the “polymerase ribozyme fitness (log ratio)” value is 0.306. To G60U C82U G110U belongs -1.72. The same measure for C12G G17A C62U C101U: -5.49. Turning to G44A A46U G93U C104U, the “polymerase ribozyme fitness (log ratio)” value is -2.25. The same measure for G63C G110A: -1.89.

As for G36U G44A G71U, the “polymerase ribozyme fitness (log ratio)” value is -3.19. To G10U U38G U78A G128A belongs -3.77.

A50U G77A C97U U106C: the “polymerase ribozyme fitness (log ratio)” value was -2.11. Turning to C12A C15A, the “polymerase ribozyme fitness (log ratio)” value was -3.39.

A74U G77U C98U C102G: the “polymerase ribozyme fitness (log ratio)” value was -6.8. The same measure for C53A G93A: -0.768; for A27U C40A C70A: -6.74; for C3G C88G: -2.34. To A16U C102U belongs -3.23; to C53G C80G C115A, -2.69. To U78C U112A A118U belongs 1.17; to U55A C56G C89U C124A, 0.651. As for C12A G120U, the “polymerase ribozyme fitness (log ratio)” value stood at 1.57. To C3U G63A belongs -1.72; to C12U A16C C73A A83C, 0.284; to A46G C53U, -1.01. The same measure for C13A U130A: -2.56; for C40G C124A: 1.16. As for C3U C86G G113C, the “polymerase ribozyme fitness (log ratio)” value is -3.51. On to U7A U21A G61C C114G, for which the “polymerase ribozyme fitness (log ratio)” value is -5.5. On to C79A G117A, for which the “polymerase ribozyme fitness (log ratio)” value was -2.46. The same measure for C34U C70G C72U: -7.09; for C11U C56G U112G: -0.0117; for A5C C94U G110A: -2.08. For the variant G42A C70U, the “polymerase ribozyme fitness (log ratio)” value was -2.09. The same measure for G23C G58A G61A C94G A111C: -7.65; for A6G G60U U78C C104A U109A: -5.54.

Regarding A5G C8U U54A A111U, the “polymerase ribozyme fitness (log ratio)” value is -2.21. For C53U G110U, the “polymerase ribozyme fitness (log ratio)” value was -1.81. The same measure for C11U C20G C72U: -3. The same measure for G10U A43U G45C U78A: -2.4. C49A C94A A103C: the “polymerase ribozyme fitness (log ratio)” value was -5.92. The same measure for U14A G44U G117U A118U: -4.78. Regarding U59A C64A A118U, the “polymerase ribozyme fitness (log ratio)” value was -6.49. The same measure for C28G C34U G35U A37U A95C C114U U133G: -6.83.

Consider A43C G52U, for which the “polymerase ribozyme fitness (log ratio)” value is -3.56.

As to A43U C53A C62A G93A U112C G128U, the “polymerase ribozyme fitness (log ratio)” value was -4.57. The same measure for C13G G48A C56A C73A: -3.11.

Turning to C34U C53G A66U C124A, the “polymerase ribozyme fitness (log ratio)” value was -6.48. To U9C C101G C104U U116C belongs -2.48; to C40G C101G C104U, -3.21. To A100U U133G belongs -0.612; to C12U G60C, 0.537. To C72G U78A U109A G128A belongs -5.92. G44C G48A: the “polymerase ribozyme fitness (log ratio)” value is -0.967. Regarding G120A G128A, the “polymerase ribozyme fitness (log ratio)” value is -0.497. To C15A C49U G61A belongs -1.73; to C12G A26C A27C G36U C97A C101U U109A, -7.51; to G35U C53U C124G, -4.66.

Turning to G65U, the “polymerase ribozyme fitness (log ratio)” value was -4.27. To A5G C11A U81C belongs -1.86; to G71A C82G G117U, -3.41; to C13A C70G U112A C123U, -4. On to U112A C114A U133A, for which the “polymerase ribozyme fitness (log ratio)” value was -1.04. To C15G A16G C49U C56U G117U belongs -1.99. To G61C A100U G120C G127U belongs -1.07.

Take U21C G42A C88U C89A: the “polymerase ribozyme fitness (log ratio)” value is -3.87.

Turning to G44A C70U, the “polymerase ribozyme fitness (log ratio)” value is -1.67. In the case of A6G C64U C73U G117C, the “polymerase ribozyme fitness (log ratio)” value is -2.37. To C73U C102U U131C belongs -1.19; to C4A C72U U130A, -2.53.

As to C12U U87A, the “polymerase ribozyme fitness (log ratio)” value amounted to 0.248.

In the case of C28A A43U C86G, the “polymerase ribozyme fitness (log ratio)” value was -5.44.

Consider U7C C8G C62U G93U A95C, for which the “polymerase ribozyme fitness (log ratio)” value is -0.906. On to C56U A95C A118C C124A U132A, for which the “polymerase ribozyme fitness (log ratio)” value was -0.917. Take C22U G60C C104A: the “polymerase ribozyme fitness (log ratio)” value was -5.43. To C53U C80U belongs -0.665; to A18G G113C, -1.3; to C8G A50U, -0.104. To G44A C89G C115A C124A U129A belongs -1.46. In the case of C28U G47U C97U C101U A103G G117C, the “polymerase ribozyme fitness (log ratio)” value was -7.85. To G10A G47C G63A C97U C101A C102U belongs -8.22. For the variant G60C A83C, the “polymerase ribozyme fitness (log ratio)” value was -0.586. To A6U A41G A91G belongs -2.5. For A84G C98U A100U, the “polymerase ribozyme fitness (log ratio)” value is -4.01. For the variant C4U A26G A41U C72U U87G A111C, the “polymerase ribozyme fitness (log ratio)” value is -4.

Take C3A G48U: the “polymerase ribozyme fitness (log ratio)” value was -2.67. The same measure for U54G C88A A105U: -2.56; for U38A G120U: 0.263. The same measure for C13U A41G G60U: -0.254; for C70U C82A C85U: -1.4; for U9G C12A U54A G93A: 0.0472. With G23U C123U, the “polymerase ribozyme fitness (log ratio)” value was -4.37. To G44A C76A C123G belongs 0.122; to C12G A46C C53A C104A C123U, -1.14; to U33A C79U C94A C104U G120A, -4.61. To C31U A50U C53U C72U G93A C124U belongs -7.15; to G44C G61A C80A, -4.34; to G10A C56A G110A, -0.729. The same measure for C56A C94U: -0.146. A43C U87C C89A A91U U92G G93C U125G: the “polymerase ribozyme fitness (log ratio)” value is -4.91.

With A41C G113C C124U, the “polymerase ribozyme fitness (log ratio)” value is -3.22.

For the variant C3U C13U C34U C62U C85U, the “polymerase ribozyme fitness (log ratio)” value is -5.63. To C56U A111G belongs 0.705; to A41G G69U G93C, -0.214; to G48C G69U U130C, -0.222. The same measure for A66U U78C C123U: -0.156. To A6C C13U C53U C85U A105U C124A U126G belongs -3.62; to C12A C56A C115U G120A C123A, -1.84. With G44C G71C A84C, the “polymerase ribozyme fitness (log ratio)” value is -2.61. To C3A C13U C34A G58C G135U belongs -4.09; to C11U C70A, -0.922. To C62U U78C belongs -0.402. To A18C A27G belongs -5.05. In the case of C12A G48A U55C G57U U59G C85U, the “polymerase ribozyme fitness (log ratio)” value was -3.61.

With C12G U21A G77C A84U, the “polymerase ribozyme fitness (log ratio)” value was -1.73. The same measure for G69C U78A: -2.44.
